# Results: PMC6219580, “Conversion of an amide to a high-energy thioester by Staphylococcus aureus sortase A is powered by variable binding affinity for calcium” (Scientific Reports, 2018)
# Where no end group is shown, it is not given here.
# T1: Staphylococcus aureus sortase A C184A mutant (residues 60-206) (Staphylococcus aureus, UniProt Q2FV99 60-206, C184A)
# T1 construct: Sortase A, Staphylococcus aureus, residues 60-206 (SrtAΔN59) with the active-site mutation C184A; Uniformly 15N-labelled for the NMR titrations; gene cloned into a PET3a vector; also called SrtA C184A; active-site mutant C184A; source: E. coli BL21 (Rosetta), purified (anion exchange, Superdex75 gel filtration)
# T1 sequence (looked up): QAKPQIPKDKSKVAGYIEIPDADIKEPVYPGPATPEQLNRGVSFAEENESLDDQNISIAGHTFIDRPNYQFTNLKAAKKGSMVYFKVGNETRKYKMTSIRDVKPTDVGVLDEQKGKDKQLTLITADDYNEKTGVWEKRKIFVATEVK
# Target: T1, Staphylococcus aureus sortase A C184A …
# Test: NMR titration; 15N-HSQC titration of the protein-Ca2+ complex at increased concentration with QALPETG-NH2; linear chemical shift changes only, far from saturation
# Details: both partners purified
binder,measurement,value
"QALPETG-NH2 (substrate peptide with the canonical LPXTG sorting motif; also called substrate peptide; source: synthetic peptide, bought: KE Biochem Co. Ltd (China)) [QALPETG-NH2]",Kd,> 50 mM
